Earlier results in patent US6518244B2, “Combinations of heparin cofactor II agonist and platelet IIb/IIIa antagonist, and uses thereof” (IntimaX Corporation, priority 2000, dated 2003).

Conditions: recipients of hirudin; cited from Huhle et al, Br. J. Haematol. (1999)

**Q.** With hirudin as the substance, how does the “recipients in whom anti-hirudin antibodies are elicited” value read?
**A.** 74%
